Measured values: article PMC11482875 (bioRxiv, 2024)

Target: the molecule itself
Assay: SEC-MALS

B1: miniTRIM37 RBhcc B-box-2 mutant (other)
chain: MDEQSVESIAEVFRCFICMEKLRDARLCPHCSKLCCFSCIRRWLTEQRAQCPHCRAPLQLRELVNCRWAEEVTQQLDTLQLCSLTKHEENEKDKCENHHEKLSVFCWTCKKCICAQCADWGGMHGGHTFKPLAEIYEQHVTKVNEEVAKLRRRLMELITERNQVAKRVPKAPPEEKEALIARGKALGEETELLESLLQEVEHQLRSCSKSELISKSSEILMMFQQVHRK
stoichiometry N: 2
